In patent publication US6919086B1, “Graminae pollen allergen mutants for specific immunotherapy, and production and use of the same” (Merck Patent Gesellschaft mit, priority 1997, dated 2005):

B1: rPhl p 5b deletion mutant DM2 (deletion F51-G178, D49L, K50A) (protein)
chain: ADAGYAPATPAAAGAAAGKATTEEQKLIEDINVGFKAAVAAAASVPAALAGAYDTYKCIPSLEAAVKQAYAATVAAAPQVKYAVFEAALTKAITAMSEVQKVSQPATGAATVAAGAATTAAGAASGAATVAAGGYKV
B2: natural Phl p 5b, purified by affinity chromatography (protein)
chain: ADAGYAPATPAAAGAAAGKATTEEQKLIEDINVGFKAAVAAAASVPAADKFKTFEAAFTSSSKAAAAKAPGLVPKLDAAYSVAYKAAVGATPEAKFDSFVASLTEALRVIAGALEVHAVKPVTEEPGMAKIPAGELQIIDKIDAAFKVAATAAATAPADDKFTVFEAAFNKAIKESTGGAYDTYKCIPSLEAAVKQAYAATVAAAPQVKYAVFEAALTKAITAMSEVQKVSQPATGAATVAAGAATTAAGAASGAATVAAGGYKV
B3: recombinant Phl p 5b (wild type) (protein)
chain: B2 chain

Legend:
[1] = biological target: IgE antibodies of the individual allergic patient serum II/17; test: EAST inhibition, individual serum II/17
[2] = biological target: specific IgE on basophils from the blood of allergic patient; test: cell-based or functional assay
[3] = biological target: IgE antibodies of the allergic patient serum pool We 6/97; test: EAST inhibition, serum pool We 6/97
[4] = biological target: IgE antibodies of the individual allergic patient serum II/12; test: EAST inhibition, individual serum II/12
[5] = biological target: IgE antibodies of the individual allergic patient serum II/3; test: EAST inhibition, individual serum II/3
[6] = biological target: IgE antibodies of the allergic patient serum pool Bor 18/100 (20 donors); test: EAST inhibition, serum pool Bor 18/100

Row | Binder | allergenic potency (Prel) at 25% inhibition (relative to native Phl p 5b) [1] | IC50 [3] [nM] | allergenic potency (Prel) at 25% inhibition (relative to native Phl p 5b) [3] | allergenic potency (Prel) at 50% inhibition (relative to native Phl p 5b) [3] | inhibition value (inhibitor concentration at 25% inhibition) [3] [mol/L] | IC50 [1] [nM] | allergenic potency (Prel) at 50% inhibition (relative to native Phl p 5b) [1] | inhibition value (inhibitor concentration at 25% inhibition) [1] [mol/L] | IC50 [4] [nM] | allergenic potency (Prel) at 25% inhibition (relative to native Phl p 5b) [4] | allergenic potency (Prel) at 50% inhibition (relative to native Phl p 5b) [4] | inhibition value (inhibitor concentration at 25% inhibition) [4] [mol/L] | IC50 [5] [nM] | allergenic potency (Prel) at 25% inhibition (relative to native Phl p 5b) [5] | allergenic potency (Prel) at 50% inhibition (relative to native Phl p 5b) [5] | inhibition value (inhibitor concentration at 25% inhibition) [5] [mol/L] | IC50 [6] [nM] | allergenic potency (Prel) at 25% inhibition (relative to native Phl p 5b) [6] | allergenic potency (Prel) at 50% inhibition (relative to native Phl p 5b) [6] | inhibition value (inhibitor concentration at 25% inhibition) [6] [mol/L] | further results
1 | B1 | 2.9e-12 |  |  |  |  |  |  |  |  |  |  |  |  |  |  |  |  |  |  |  | concentration required to bring about a 30% histamine release from basophils, against wild type rPh1 p 5b [2]: 500 fold higher
2 | B2 | 1 | 6.1 | 1 | 1 | 5.1e-10 | 2.6 | 1 | 2.2e-10 | 6.8 | 1 | 1 | 5.2e-10 | 5.9 | 1 | 1 | 5.1e-10 | 4.2 | 1 | 1 | 3.3e-10 | 
3 | B3 | 1.04 | 1400 | 1.7 | 0.44 | 3e-10 | 4.7 | 0.545 | 2.1e-10 | 73 | 0.597 | 0.093 | 8.7e-10 | 14 | 0.903 | 0.419 | 5.6e-10 | 5 | 1.71 | 0.841 | 2e-10 | 
